Measurements taken from patent US20260116920A1 (PEPTIDREAM, published 2026).
Starred links: 1 amine or outer side, 2 acyl side, 3 side chain; linkers in the order of their positions; H or OH if unused. Positions of bridges follow the written chain, without caps; N, C: chain ends. Non-standard residues stand in square brackets, D forms with d. Primed or numbered codes have the meaning given here. No end group written: not given here. E(PEG8Me) = (S)-30-amino-27-oxo-2,5,8,11,14,17,20,23-octaoxa-26-azahentriacontane-31-oic acid, COCCOCCOCCOCCOCCOCCOCCOCCNC(=O)CC[C@H](N[*:1])C(=O)[*:2]; E(PEG4Me) = (S)-18-amino-15-oxo-2,5,8,11-tetraoxa-14-azanonadecane-19-oic acid, COCCOCCOCCOCCNC(=O)CC[C@H](N[*:1])C(=O)[*:2]; Phe(4-OMe)(3) = (S)-2-amino-3-(4-methoxyphenyl)propanoic acid (source code F4OMe), COc1ccc(C[C@H](N[*:1])C(=O)[*:2])cc1; F4aao = (S)-2-amino-3-(4-(carboxymethoxy)phenyl)propanoic acid, O=C([C@H](Cc1ccc(OCC(=O)[*:3])cc1)N[*:1])[*:2]; Phe(4-OMe)″ = (S)-2-amino-3-(4-methoxyphenyl)propanoic acid (F4OMe), COc1ccc(C[C@H](N[*:1])C(=O)[*:2])cc1; Phe(4-OMe) = F4OMe = (S)-2-amino-3-(4-methoxyphenyl)propanoic acid, COc1ccc(C[C@H](N[*:1])C(=O)[*:2])cc1; E(NHdPEG1Me) = N5-(1,3-dimethoxypropan-2-yl)-L-glutamine, COCC(COC)NC(=O)CC[C@H](N[*:1])C(=O)[*:2]; Trp(1-CH2CO) = O=C([C@H](Cc1cn(CC(=O)[*:3])c2ccccc12)N[*:1])[*:2]; Ala(1-CH2CO2H-4-piperidyl) = N[C@@H](CC1CCN(CC(=O)O)CC1)C(=O)O; Trp(5-Cl) = N[C@@H](Cc1c[nH]c2ccc(Cl)cc12)C(=O)O; Nle(6-morpholino) = N[C@@H](CCCCN1CCOCC1)C(=O)O; Phe(3-COOH) = N[C@@H](Cc1cccc(C(=O)O)c1)C(=O)O; NMePhe(3-Cl) = CN[C@@H](Cc1cccc(Cl)c1)C(=O)O; NMePhe(4-F) = CN[C@@H](Cc1ccc(F)cc1)C(=O)O; NMeW = CN[C@@H](Cc1c[nH]c2ccccc12)C(=O)O; PEG8 = NCCOCCOCCOCCOCCOCCOCCOCCOCCC(=O)O; Lys(N3) = [N-]=[N+]=NCCCC[C@H](N)C(=O)O; NMeY = CN[C@@H](Cc1ccc(O)cc1)C(=O)O; NMeR = CN[C@@H](CCCNC(=N)N)C(=O)O; NMeF = CN[C@@H](Cc1ccccc1)C(=O)O; 3Pal = N[C@@H](Cc1cccnc1)C(=O)O; 4Pal = N[C@@H](Cc1ccncc1)C(=O)O

Legend:
[1] = biological target: T1, human transferrin receptor (hTfR) (human, UniProt P02786 89-760); test: SPR; B = KD 1-100 nM
T1 construct: used as 0.5 uM hTfR dimer solution, immobilised on an NTA sensor chip (Ni capture plus EDC/NHS coupling); also called human TfR; TfR1
Summary of the method: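 Recombinant hTfR dimer immobilised on Ni-NTA chip with EDC/NHS coupling; running buffer 10 mM HEPES pH 8.0, 150 mM NaCl, 0.05% Tween 20, 0.1% BSA, 1.0% DMSO. Peptides injected at 5–100 nM in single-cycle kinetics; KD from least-squares sensorgram fitting.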

[2] = biological target: T1, human transferrin receptor (hTfR); test: SPR; A = KD <1 nM
Procedure: NTA sensor chip (Global Life Sciences Technologies Japan K.K.) was inserted into BiacoreT200 (Global Life Sciences Technologies Japan K.K.), then the priming operation was performed three times by using running buffer containing: 10 mM HEPES pH 8.0 (Nacalai Tesque, Inc.), 150 mM NaCl (Nacalai Tesque, Inc.), 0.05% Tween 20 (Nacalai Tesque, Inc.), 0.1% BSA (SIGMA-ALDRICH) and 1.0% DMSO (FUJIFILM Wako Pure Chemical Corporation), and equilibrated at a flow rate of 30 μL/min. 350 mM EDTA solution was reacted at a flow rate of 10 μL/min for 60 seconds, 0.5 mM […] solution (Kishida Chemical Co., Ltd.) was reacted at a flow rate of 10 μL/min for 60 seconds, and then the NTA sensor chip was washed with 3 mM EDTA solution (Nacalai Tesque, Inc.) at a flow rate of 10 μL/min for 60 seconds. After mixing 50 μL each of 60 mM EDC solution (Global Life Science Technologies Japan K.K.) and 650 mM NHS solution (Global Life Science Technologies Japan K.K.), the reaction was carried out at a flow rate of 10 μL/min for 420 seconds. 150 μL of 0.5 μM hTfR dimer solution was prepared by dilution with running buffer and reacted at a flow rate of 10 μL/min for 300 seconds to immobilize hTfR on the NTA sensor chip. For the human transferrin receptor (hTfR), recombinant hTfR described in Example 2 of WO2018/124121 was used. After immobilization, capping was performed by reacting with 1.0 M ethanolamine solution (Global Life Sciences Technologies Japan K.K.) at a flow rate of 10 μL/min for 420 seconds. Peptide lysate prepared in DMSO solution to 10 mM was diluted with running buffer to be a final concentration of 10 μM peptide lysate, then peptide solutions of 100 nM, 50 nM, 25 nM, 10 nM, and 5 nM were prepared. Using the above samples, the kinetics of the peptide against hTfR was obtained by SPR measurement.
The kinetic evaluation model was single-cycle kinetics, and curve fitting was performed using Biacore T200 Evaluation Software Version 3.0 (Global Life Science Technologies Japan K.K.). The binding of the peptide to hTfR was evaluated by performing curve fitting on the obtained sensorgram by least squares method and obtaining the KD value.

T1 sequence (P02786 89-760 limits assumed): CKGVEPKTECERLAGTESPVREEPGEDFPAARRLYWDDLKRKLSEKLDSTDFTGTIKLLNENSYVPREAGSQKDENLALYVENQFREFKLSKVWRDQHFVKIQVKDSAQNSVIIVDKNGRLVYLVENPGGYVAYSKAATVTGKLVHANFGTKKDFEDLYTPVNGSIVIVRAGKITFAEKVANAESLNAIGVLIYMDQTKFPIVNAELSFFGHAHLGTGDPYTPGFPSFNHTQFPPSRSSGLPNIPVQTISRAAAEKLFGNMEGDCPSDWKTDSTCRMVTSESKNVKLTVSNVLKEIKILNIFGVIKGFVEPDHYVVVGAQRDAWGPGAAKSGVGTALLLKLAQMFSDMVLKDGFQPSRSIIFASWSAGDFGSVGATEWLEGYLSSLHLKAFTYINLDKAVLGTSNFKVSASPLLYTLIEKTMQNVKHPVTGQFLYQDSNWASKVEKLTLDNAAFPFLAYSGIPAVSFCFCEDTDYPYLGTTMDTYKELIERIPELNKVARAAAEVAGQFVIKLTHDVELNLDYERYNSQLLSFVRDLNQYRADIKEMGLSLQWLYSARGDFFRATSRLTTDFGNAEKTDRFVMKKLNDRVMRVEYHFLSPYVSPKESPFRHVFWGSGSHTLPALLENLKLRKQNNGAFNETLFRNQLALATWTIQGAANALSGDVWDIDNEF

{CH2CO}-AV[NMeF]VWNY[Phe(4-OMe)]IIR[dR]FYC-NH2 (thioether N-15; not fully specified (residue 14); also: linker PEG4c) [894_0283]
KD [1]: 1 to 100 nM

{CH2CO}-AV[NMeF]VWNY[Phe(4-OMe)]II[NMeR]RFYC-NH2 (thioether N-15; not fully specified (residue 14); also: linker PEG4c) [894_0285, listing 1 of 2 here]
KD [1]: 1 to 100 nM

Ac-AV[NMePhe(3-Cl)]V[Trp(1-CH2CO)]NY[F4aao]IIRR[Phe(3-COOH)][NMeY]C (thioether (positions not given here); not fully specified (C-terminus, bridges)) [894_0342]
KD [1]: 1 to 100 nM

B1: 894_3182 (peptide)
peptide: {CH2CO}-AV[NMePhe(3-Cl)]V[Trp(1-CH2CO)]NY[F4aao]IIRRF[NMeY]CG[PEG8][Lys(N3)]-NH2
modifications: thioether N-15
SMILES: CC[C@H](C)[C@@H]1NC(=O)[C@H](Cc2ccc(OCC(=O)O)cc2)NC(=O)[C@H](Cc2ccc(O)cc2)NC(=O)[C@H](CC(N)=O)NC(=O)[C@H](Cc2cn(CC(=O)O)c3ccccc23)NC(=O)[C@H](C(C)C)NC(=O)[C@H](Cc2cccc(Cl)c2)N(C)C(=O)[C@H](C(C)C)NC(=O)[C@H](C)NC(=O)CSC[C@@H](C(=O)NCC(=O)NCCOCCOCCOCCOCCOCCOCCOCCOCCC(=O)N[C@@H](CCCCN=[N+]=[N-])C(N)=O)NC(=O)[C@H](Cc2ccc(O)cc2)N(C)C(=O)[C@H](Cc2ccccc2)NC(=O)[C@H](CCCNC(=N)N)NC(=O)[C@H](CCCNC(=N)N)NC(=O)[C@H]([C@@H](C)CC)NC1=O
KD [1]: 1 to 100 nM

B2: 894_0253 (peptide)
peptide: {CH2CO}-AV[NMeF]V[Trp(5-Cl)]NY[Phe(4-OMe)]IIR[dR]FYC-NH2
modifications: thioether N-15; not fully specified (residue 14); also: linker PEG4c, place not given here
KD [1]: 1 to 100 nM

B3: 894_0262 (peptide)
peptide: {CH2CO}-AV[NMePhe(4-F)]V[NMeW]NY[Phe(4-OMe)]II[NMeR][dR]FYC-NH2
modifications: thioether N-15; not fully specified (residue 14); also: linker PEG4c, place not given here
KD [1]: 1 to 100 nM

{CH2CO}-AV[NMePhe(3-Cl)]VWNY[F4aao]II[E(PEG8Me)]RF[NMeY]C-NH2 (thioether N-15; also: linker PEG4c, place not given here) [849_0397]
KD [2]: < 1 nM

{CH2CO}-AV[NMePhe(3-Cl)]V[Trp(1-CH2CO)]NY[F4aao]II[Nle(6-morpholino)][Nle(6-morpholino)]F[NMeY]C-NH2 (thioether N-15; also: linker PEG4c, place not given here) [894_0390]
binding result [2]: binds

B4: 894_0250 (peptide)
peptide: {CH2CO}-AV[NMeF]V[Trp(5-Cl)]NYYIIRRFYC-NH2
modifications: thioether N-15; not fully specified (residue 14); also: linker PEG4c, place not given here
KD [2]: < 1 nM

{CH2CO}-AV[NMePhe(3-Cl)]VWNY[Phe(4-OMe)″]IIRR[4Pal][NMeY]C-NH2 (thioether N-15; also: linker PEG4c) [894_0317]
KD [2]: < 1 nM

{CH2CO}-AV[NMePhe(3-Cl)]V[Trp(1-CH2CO)]NY[F4aao]II[Ala(1-CH2CO2H-4-piperidyl)]RF[NMeY]C-NH2 (thioether N-15; also: linker PEG4c, place not given here) [894_0386]
binding result [2]: binds

B5: 894_0254 (peptide)
peptide: {CH2CO}-AV[NMePhe(4-F)]V[Trp(5-Cl)]NYYIIRRFYC-NH2
modifications: thioether N-15; not fully specified (residue 14); also: linker PEG4c, place not given here
KD [2]: < 1 nM

{CH2CO}-AV[NMePhe(3-Cl)]VWNY[Phe(4-OMe)]IIKRFYC-NH2 (thioether N-15; not fully specified (residue 14); also: linker PEG4c) [894_0281]
KD [2]: < 1 nM

{CH2CO}-AV[NMePhe(3-Cl)]VWNY[F4aao]II[E(NHdPEG1Me)]R[Phe(3-COOH)][NMeY]C-NH2 (thioether N-15; also: linker PEG4c, place not given here) [849_0399]
KD [2]: < 1 nM

{CH2CO}-AV[NMePhe(3-Cl)]V[Trp(1-CH2CO)]NY[F4aao]II[E(PEG4Me)][Nle(6-morpholino)]F[NMeY]C-NH2 (thioether N-15; also: linker PEG4c, attachment site not given here) [849_0404]
KD [2]: < 1 nM

{CH2CO}-AV[NMePhe(3-Cl)]V[Trp(1-CH2CO)]NY[Phe(4-OMe)(3)]IERRF[NMeY]C-NH2 (thioether N-15; also: linker G-de-de-de-ds-ds-KN3, attachment not given here) [894_3167]
KD [2]: < 1 nM

{CH2CO}-AV[NMeF]V[Trp(5-Cl)]NY[Phe(4-OMe)]IIRRYYC-NH2 (thioether N-15; not fully specified (residue 14); also: linker PEG4c) [894_0289]
KD [2]: < 1 nM

{CH2CO}-AV[NMePhe(3-Cl)]VWNY[Phe(4-OMe)]IIRRYYC-NH2 (thioether N-15; not fully specified (residue 14); also: linker PEG4c) [894_0291]
KD [2]: < 1 nM

B6: 894_0258 (peptide)
peptide: {CH2CO}-AV[NMePhe(4-F)]V[Trp(5-Cl)]NY[Phe(4-OMe)]IIR[dR]FYC-NH2
modifications: thioether N-15; not fully specified (residue 14); also: linker PEG4c, place not given here
KD [1]: 1 to 100 nM

Ac-AV[NMePhe(3-Cl)]VWNY[3Pal]IIQQ[4Pal][NMeY]C (thioether (positions not given here); not fully specified (C-terminus, bridges)) [894_0327]
KD [1]: 1 to 100 nM

{CH2CO}-AV[NMeF]VWNY[Phe(4-OMe)]II[NMeR]RFYC-NH2 (thioether N-15; not fully specified (residue 14); also: linker PEG4c) [894_0285, listing 2 of 2 here]
KD [1]: 1 to 100 nM

{CH2CO}-AV[NMePhe(3-Cl)]V[Trp(1-CH2CO)]NY[F4aao]IIRRFYC-NH2 (thioether N-15; not fully specified (residue 14); also: linker PEG4c) [894_0295]
KD [1]: 1 to 100 nM

B7: 894_0261 (peptide)
peptide: {CH2CO}-AV[NMePhe(4-F)]V[NMeW]NY[Phe(4-OMe)]IIR[dR]FYC-NH2
modifications: thioether N-15; not fully specified (residue 14); also: linker PEG4c, place not given here
KD [1]: 1 to 100 nM

B8: 894_0259 (peptide)
peptide: {CH2CO}-AV[NMePhe(4-F)]V[Trp(5-Cl)]NY[Phe(4-OMe)]II[NMeR][dR]FYC-NH2
modifications: thioether N-15; not fully specified (residue 14); also: linker PEG4c, place not given here
KD [1]: 1 to 100 nM
